Assay: yeast display, Sf9 membrane polyspecificity reagent, FACS + sequencing; frameworks hold sequencing errors
How it was run: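 Using colony PCR, genes from sorted yeast display clones were amplified, then sequenced on MiSeq at 2 × 250 and filtered by CDR length. The clones had been stained with 10% biotinylated, detergent-solubilized Sf9 membrane reagent for 1 hour at 4 °C and sorted by FACS into low and high (top ~1%) gates on anti-HA and streptavidin fluorescence. Polyreactivity labels come from the gate of origin.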
With “QVQLVESGGGLVQAGGSLRLSCAASGFIFSPYVMGSYRQAPGKERELVAAISSIGGSTYYADSVKGRFTISRDNAKKTVYLQMNSLKPEDTAVYYCADSVYYYASRYDYWGQGTQVTVSS” the “polyreactivity (PSR sort gate)” value was “low polyreactivity”.
For “QVQLVESGGGLVQAGGSLRLSCAASGFIFSQNTMGWYRQAPGKERELVAAISKSGGTTYYADSVKGRFTISRDNAKNTVYLQMNSLKPEDTAVYYCARDKGYVSYRYNYWGQGTQVTVSS”, the “polyreactivity (PSR sort gate)” value was “high polyreactivity”.
With “QVQLVESGGGLVQAGGSLRLSCAASGFIFSRNAMGWYRQAPGKERELVAAISSTGGITYYADSVKGRFSISRDNAKNTVYLQMNSLKPEDTAVYYCAACFYGYARHTWYNYWGQGTQVTVSS” the “polyreactivity (PSR sort gate)” value was “high polyreactivity”.
With “QVQLVESGGGLVQAGGSLRLSCAASGFIFSRYAMGWYRQAAGKERELVAAISYSGSSTYYADSVKGRFTISRDNAKNTVFLQMNSLKPEDTGVYYCNAVTQITGSSDGDYWGQGTQVTVSS” the “polyreactivity (PSR sort gate)” value was “high polyreactivity”.
With “QVQLVESGGGLVQAGGSLRLSCAASGFIFSRYAMGWYRQAPGKERELVAAISIGGSTYYADSVKGRFTISRDNAKNTVYLQMNSLKPEDTAVYYCAVDYRHSSSWNAGPWEMYYWGQGTQVTVSS” the “polyreactivity (PSR sort gate)” value was “low polyreactivity”.
In the case of “QVQLVESGGGLVQAGGSLRLSCAASGFIFSRYFMGWYRQAPGKERELVAAISWNVGSTYYADSVKGRFTISRDNAKNTVYLQMNSLKPEDTAVYYCAARDRRSVTMDYWGHGTQVTVSS”, the “polyreactivity (PSR sort gate)” value was “high polyreactivity”.
In the case of “QVQLVESGGGLVQAGGSLRLSCAASGFIFSSHAMGWYRQAPGKERELVAAISRSGGRTYYADSVKGRFTISRDNAKNTVYLQMNSLKPEDTAVYYCAAKRWWQYYWGQGTQVTVSS”, the “polyreactivity (PSR sort gate)” value was “high polyreactivity”.
In the case of “QVQLVESGGGLVQAGGSLRLSCAASGFIFSSNAMGWYRQAPGKEREFVAAISFRGGTTYYADSVKRRFTISRDNAKNTVYLQLNSLKPEDTAVYYCNAVRWRSGRWWWYDYWGQGTQVTVSS”, the “polyreactivity (PSR sort gate)” value was “low polyreactivity”.
With “QVQLVESGGGLVQAGGSLRLSCAASGFIFSSNAMGWYRQAPGKERELVATISSDGSTNYADSVKGRFTISRDNAKNTVYLQMNSLKPEDTAVYYCAADLSLTIGTWTVLDTKYDYWGQGTQVTVSS” the “polyreactivity (PSR sort gate)” value was “low polyreactivity”.
For “QVQLVESGGGLVQAGGSLRLSCAASGFIFSSNDMGWYRQAPGKERELVAAIDYSGGSTYYADSVKGRFTISRDNAKNTVYLQMNSLKPEDTAVYYCAATVYNPTDYYSPYYYWGQGTQVTGSS”, the “polyreactivity (PSR sort gate)” value was “low polyreactivity”.
For “QVQLVESGGGLVQAGGSLRLSCAASGFIFSSNTMGWYRQAPGKERELVADITSGARTNYADSVKGRFTISRDNAKNTVYLQMNSLKPEDTAVYYCAAYPHYIYFTWYPRYTYGYWGQGTQVTVSS”, the “polyreactivity (PSR sort gate)” value was “low polyreactivity”.
In the case of “QVQLVESGGGLVQAGGSLRLSCAASGFIFSSYAMGWYRQAPGKEREFVASISASGGTTYYADSVKGRFTISRDNAKNTVYLQMNSLKPEDTAVYYCAAPWLDAEDYWGQGTQVTVSS”, the “polyreactivity (PSR sort gate)” value was “high polyreactivity”.
With “QVQLVESGGGLVQAGGSLRLSCAASGFIFSSYAMGWYRQAPGKEREFVAVISTGGGSTYYADSVKGRFTISRDNAKITVYLQMNSLKPEDTAVYYCAAKLYDSGGRYWYDYWGQGTQVTVSS” the “polyreactivity (PSR sort gate)” value was “high polyreactivity”.
In the case of “QVQLVESGGGLVQAGGSLRLSCAASGFIFSSYAMGWYRQAPGKERELVAAISRSGGRTYYADSVKGRFTISRDNAKNTVYLQMNSLKPEDTAVYYCAAKWLGTAGDDYWGQGTQVTVSS”, the “polyreactivity (PSR sort gate)” value was “high polyreactivity”.
In the case of “QVQLVESGGGLVQAGGSLRLSCAASGFIFSTYAMGWYRQAPGKERELVSAISCSTGSTYYADSVKGRFTISRDNAKNTVYLQMNSLKPEDTAVYYCNALRRPSTEGRDYWGQGTQVTVSS”, the “polyreactivity (PSR sort gate)” value was “high polyreactivity”.
In the case of “QVQLVESGGGLVQAGGSLRLSCAASGFIFSVNAMGWYRQAPGKERELVAAISTNTGRTYYADSVKGRFTISRDNAKNTVYLQMNSLKPEDTAVYYCAADGPTYWAVRGDYWGQGTQVTVSS”, the “polyreactivity (PSR sort gate)” value was “low polyreactivity”.
For “QVQLVESGGGLVQAGGSLRLSCAASGFIFSVNTMGSYRQAPGKERELVAAISGSGGSTYYADSVKGRFTISRDNAKNTVYLQMNSLKPEDTAVYYCAARYTVTYDYWGQGTQVTVSS”, the “polyreactivity (PSR sort gate)” value was “high polyreactivity”.
In the case of “QVQLVESGGGLVQAGGSLRLSCAASGFIFSVYAMGWYRQAPGKEREFVAAIRWSGGSTYYADSVKGRFTISRDNAKNTVYLQMNSLKPEDTAVYYCAARARDLYGYWGQGTQVTVSS”, the “polyreactivity (PSR sort gate)” value was “high polyreactivity”.
For “QVQLVESGGGLVQAGGSLRLSCAASGFIFSVYAMGWYRQAPGKERELVAAITESGGSTYYADSVKGRFTISRDNAKNSVYLQMNSLKPEDTAVYYCAAAIRPYEYEYWGQGTQVTVSS”, the “polyreactivity (PSR sort gate)” value was “low polyreactivity”.
In the case of “QVQLVESGGGLVQAGGSLRLSCAASGFIFSVYAMGWYRQAPGTEREFVAAIRWSGGSTYYADSVKGRFTISRDNAKNTVYLQMNSLKPEDTAVYYCAARARDHYGYWGQGTQVTVSS”, the “polyreactivity (PSR sort gate)” value was “high polyreactivity”.
With “QVQLVESGGGLVQAGGSLRLSCAASGFIFSVYTMGWYRQAPGKERELVASITWSGGDTYYADSVKGRFTISRDNAKNTVYLQMNSLKPEDTAVYYCNVDAGFHDSYHAWNLRYDYWGQGTQVTVSS” the “polyreactivity (PSR sort gate)” value was “low polyreactivity”.
In the case of “QVQLVESGGGLVQAGGSLRLSCAASGFIFSWNAMGWYRQAPGKERELVAVITWSGSRTNYADSVKGRFTISRDNAKNTVYLQMNSLKPEDTAVYYCATKGPVYTSSRPVSGGAYNYWGQGTQVTVSS”, the “polyreactivity (PSR sort gate)” value was “low polyreactivity”.
For “QVQLVESGGGLVQAGGSLRLSCAASGFIFSYYALGWYRQATGKERELVAAITYSGVRTYYADSVKGRFTISRDNAKNTVYLQMNSLKPVDTAVYYCNTKHRTKPTRPDDYWGQGTQVTVSS”, the “polyreactivity (PSR sort gate)” value was “high polyreactivity”.
In the case of “QVQLVESGGGLVQAGGSLRLSCAASGFIFSYYAMGWYRQAPGKERELVAAISSGGSTYYADSVKGRFTISRDNAKNTVYLQMNSLKPEDTAVYYCAAAIWYIKLYFVRRTEHGYWGQGTQVTVSS”, the “polyreactivity (PSR sort gate)” value was “low polyreactivity”.
In the case of “QVQLVESGGGLVQAGGSLRLSCAASGFIFSYYAMGWYRQAPGKERELVATITSGGSTNYADSVKGRFTISRDNAKNTVYLQMNSLKPEDTAVYYCNALPGVSHTQYDRVGYWGQGTQVTLSS”, the “polyreactivity (PSR sort gate)” value was “high polyreactivity”.
With “QVQLVESGGGLVQAGGSLRLSCAASGFIFSYYAMGWYRQAPGTERELVAVITFSVGSPYYADSVKGRFTISRDNAQNTVYLLMNSLKPEDTAVYYCAARSYACAKRAYYYWGQGTQVTVSS” the “polyreactivity (PSR sort gate)” value was “high polyreactivity”.
With “QVQLVESGGGLVQAGGSLRLSCAASGFIFSYYTMGWYRQEPGTERELVADISWSGGSSYYADSVKGRFTISRDNAKNTVYLQMNSLKPEDTAVYYCNAEGWTAFLDQYDYWGQGTQVTVSS” the “polyreactivity (PSR sort gate)” value was “high polyreactivity”.
For “QVQLVESGGGLVQAGGSLRLSCAASGFIFSYYVMGWYRQAPGKERELVAAINESGGRTYYADSVKGRFTISRDNAKNTVYLQMNSLKPEDTAVYYCAASVLNKIQGYRDYYWGQGTQVTVSS”, the “polyreactivity (PSR sort gate)” value was “low polyreactivity”.
With “QVQLVESGGGLVQAGGSLRLSCAASGFIFSYYVMGWYRQAPGKERELVAAINESGGRTYYADSVKGRFTISRDNAKNTVYLQMNSLKPEDTAVYYCATIPGYVYYWQYKYDYWGQGTQVTVSS” the “polyreactivity (PSR sort gate)” value was “low polyreactivity”.
With “QVQLVESGGGLVQAGGSLRLSCAASGFIFTDNVMGWYRQAPGKERELVAAISRGGGSTYYADSVKGRFTISRDNAKNTDYLQMNSLKPEDTAVYYCAAPTARSRSERDYWGQGTQVTVSS” the “polyreactivity (PSR sort gate)” value was “high polyreactivity”.
For “QVQLVESGGGLVQAGGSLRLSCAASGFIFTDYTMGWYRQAPGKERELVAAIDSSGGGTHYADSVKGRFTISRDNAKNTVYLQMNSLKPEDTAVYYCAAADYLIQFWYQYDYWGQGTQVTVSS”, the “polyreactivity (PSR sort gate)” value was “low polyreactivity”.
For “QVQLVESGGGLVQAGGSLRLSCAASGFIFTIYAMGWYRQAPGKERELVAAITWNGGRTYYADSVKGRFTISRDNAKNTVYLQMNSLKPEDTAVYYCAARYGRAYDYWGQGTQVTVSS”, the “polyreactivity (PSR sort gate)” value was “high polyreactivity”.
With “QVQLVESGGGLVQAGGSLRLSCAASGFIFTLYAMGWYRKAPGKEREFVAAISWSDGSTTYADSVKGRFTISRDNAKNTVYLQMNSLKPEDTAVYYCNTSYIIWYDSWGQGTQVTVSS” the “polyreactivity (PSR sort gate)” value was “low polyreactivity”.
In the case of “QVQLVESGGGLVQAGGSLRLSCAASGFIFTRYAMGWYRQAPGKERELVAAIRWRGSSTYYADSVKGRFTISRDNAKNTVYLQMNSLKPEDTAVYYCAAQPSRSTYLAPSRDHWGQGTQVTVSS”, the “polyreactivity (PSR sort gate)” value was “low polyreactivity”.
For “QVQLVESGGGLVQAGGSLRLSCAASGFIFTRYAMGWYRQAPGKERELVAAITRSGGRTYYADSVKGRFTISRDNAKNTVYLQMNSLKPEDTAVYYCAAEGSVGLYGLIMHYWGLGTQVTVSS”, the “polyreactivity (PSR sort gate)” value was “high polyreactivity”.
With “QVQLVESGGGLVQAGGSLRLSCAASGFIFTRYAMGWYRQAPGKERELVAGINRSGSRTYYADSVKGRFKISRDNAKNTVYLQMNSLKPEDTAVYYCATDTWYLYSTLDYWGQGTQVTVSS” the “polyreactivity (PSR sort gate)” value was “high polyreactivity”.
With “QVQLVESGGGLVQAGGSLRLSCAASGFIFTTYAMGWYRQAPGKERELVAAISTSGGRTYYADSVKGRFTISRDNAKNTVYLQMNSLKPEDTAVYYCNTYSYYSYDWGQGTQVTVSS” the “polyreactivity (PSR sort gate)” value was “high polyreactivity”.
For “QVQLVESGGGLVQAGGSLRLSCAASGFIFTWYAMGWYRQAPGKEREVVAGISRSGGRTYYADSVKGRFTISRDNAKNTVYLQMNSLKPEDTAVYYCNAVLVGYRPYREFDHWGQGTQVTVSS”, the “polyreactivity (PSR sort gate)” value was “high polyreactivity”.
In the case of “QVQLVESGGGLVQAGGSLRLSCAASGFIFTYNAMGWYRQAPGKERELVAAMNSGGITYYADSVKGRFTISRDNAKNPVYLQMNSLKPEDTAVYYCAKRRQIGWITYDYCGQGTQVTVSS”, the “polyreactivity (PSR sort gate)” value was “low polyreactivity”.
With “QVQLVESGGGLVQAGGSLRLSCAASGFIFTYYAMGWYRQAPGKERELVAAISSRGTSTYYADSVKGRFTISRDNAKNTVYLQMNSLKPEDTAVYYCAAGKPKIPDDDYWGQGTQVTVSS” the “polyreactivity (PSR sort gate)” value was “high polyreactivity”.
With “QVQLVESGGGLVQAGGSLRLSCAASGFIFTYYAMGWYRQAPGKERELVASITISGGSTYYADSVKGRFTISRDNAKNTVYLQMNSLKPEDTAVYYCNVVPWYYGYDYWGQGTQVTVSS” the “polyreactivity (PSR sort gate)” value was “high polyreactivity”.
In the case of “QVQLVESGGGLVQAGGSLRLSCAASGFIFTYYAMGWYRQAPGKERELVAVISWSGGTTYYADSVKGRFTISRDNAKNTVYLQMNSLKPEDTAVYYCAAGKVSFWLVFEYDYWGQGTQVTVSS”, the “polyreactivity (PSR sort gate)” value was “low polyreactivity”.
For “QVQLVESGGGLVQAGGSLRLSCAASGFIFTYYDMGWYRQAPGKERELVASISWDGGRTYYADSVKGRFTISRDNAKNTVYLQMNSLKPEDTAVYYCAKRLGGSPIQARGDYWGQGTQVTVSS”, the “polyreactivity (PSR sort gate)” value was “low polyreactivity”.
